Results published in the DeepSol protein solubility set.

Test: soluble on expression in E. coli; label from the status in PepcDB or PDB records

| Sequence | soluble on expression in E. coli |
| --- | --- |
| MKEYNYIFGPIPSRRMGNSLGISSIEKRSCTYSCVYCQLGRTKNLMKEPKKFFKTEDILEEFKEYLKEDVDIDVVTVVGEGEPTLSDDLEELILGLKAITDKPVAVITNGSMLVYEKVRKALKAADIVLPSLDAGDEETFRKINRPNAKIDFNKITEALVQFSKEYNGELWMETMIVKGFNDKTEELYAIRKILDRIDYDRLYINTPVRPPAESYVEEPSKEKLDEVIRILRGTSIQMLSSGTFFSEITDDFEAIKSIISRHPMNKFEVESFLNSRKCRDKEEVLRKLKNHADIDVVSYKNYTTYRLK | not soluble |
| MNDLKSKSNIKLMKRVLTTYELRKYLKKYFCLTLDNYLVLAYLDVFKNDEGKYFMRDIISYIGIDQSRIVKSVKDLSKKGYLNKCRDPHDSRNVIIVVSVKQHNYIKNLLSEININET | not soluble |
| MSLIGFLSDRQGFEKQYHDIDLSSFGIREGISEIIASTGFEHPNAAPIGIVMKGERPFVRLFKGSHTWENVLKEKCLASNVVYDPILFVRSTFSDLVPSEFEYVDAGEFKFPVLKEAIAWVVFECINLRNTDQSLVADLVPLNAGFNERNIKELPVPNRGFNAVLEATVHATRYQLTGEEKYLELIRHYESLASKCGGDAEKKAMKLIYEALGLEGHHHHHH | soluble |
| MKSIISLMAACAIGAASFAAPAFAQDKGSVGIAMPTKSSARWIDDGNNIVKQLQEAGYKTDLQYADDDIPNQLSQIENMVTKGVKVLVIASIDGTTLSDVLKQAGEQGIKVIAYDRLIRNSGDVSYYATFDNFQVGVLQATSITDKLGLKDGKGPFNIELFGGSPDDNNAFFFYDGAMSVLKPYIDSGKLVVKSGQMGMDKVGTLRWDPATAQARMDNLLSAYYTDAKVDAVLSPYDGLSIGIISSLKGVGYGTKDQPLPVVSGQDAEVPSVKSIIAGEQYSTIFKDTRELAKVTVNMVNAVMEGKEPEVNDTKTYENGVKVVPSYLLKPVAVTKENYKQVLVDGGYYKEDQLK | not soluble |
| MSLTPRDHTLILIDYQSQMAFATHSIDIPTLRNNAGLVASAAAGFGVSAILTTVAEKSFSGPMFDEVTAPFPDLRMLDRTSMNTWEDAAVIDRVNQIGKGRIVLAGLWTSVCIVGPALSALDQGFEVYVIADACGDISAEAHERAMQRMVQAGARPITSLQYLLELQRDWARTDTYELTTGIAAKLGGGYGLGIRYAKTMFGGHEGHHHHHH | soluble |
| VADFRYNVGLNLSAVKNKAVKFSGDGPIQTGGFNSDQIIRNEDGGLISRFYGYVADGIFQNWDEVYAHTNENGKLVQSNAQPGDIRFKDLNHDGVLDENDKTWIGNPYPDLMVGLNLGFSYKNIDFTANFYGTFGNDIFNKTKGLYSGVSGQNVWTGTLQKAWHGEGTSNDIPRLSYNDLNQNYTRVSSFFVEDGSYMRCKLLQVGYTLPKKWLNGTELRLSLSAQNPFTITSYSGMDPERPQIGKDGSVIETGIDGIAYPNPRTFLFGIDLKF | not soluble |
| MRTLFIGDLHLSADRLDITQAFNRFLDTELDDADALYILGDLFEVWVGDDLAAPFALELAHKLKQVSQTLPIFFIHGNRDFMLGKRFAEAAGMQLLPEVTCIELYGVKTVILHGDSLCTLDKAYQRFRKLRSFACARWLYSCLPKKRRQAIANKIRSNSQSSNQQKSYVIMDVEPSAVNALFVKTHTTRMIHGHTHRPAIHIVDNACQRIVVGDWYEQGSVLSVSANGVDLKSLPFETTLEHHHHHH | not soluble |
| MSLSKVFTIGEILVEIMASKIGQPFDQPGIWNGPYPSGAPAIFIDQVTRLGVPCGIISCVGNDGFGDINIHRLAADGVDIRGISVLPLEATGSAFVTYHNSGDRDFIFNIKNAACGKLSAQHVDENILKDCTHFHIMGSSLFSFHMVDAVKKAVTIVKANGGVISFDPNIRKEMLDIPEMRDALHFVLELTDIYMPSEGEVLLLSPHSTPERAIAGFLEEGVKEVIVKRGNQGASYYSANEQFHVESYPVEEVDPTGAGDCFGGAWIACRQLGFDAHRALQYANACGALAVTRRGPMEGTSRLMEIETFIQRHDMSIREAAQEGHHHHHH | soluble |
| MAHHHHHHMRARRSCKFAEYLSTYAILEHIGIHPTTLIEKRDAAVGVGVYVRDACDAGTALLAVPSKRFCTTSVLSRVGLKTSFCSPWRADSEVPSTAFAGPTCDVQGGILSFLTGSTQWPELAWRLALEQHRSVSPLWGWLQSLPSVEELADRRDVAERQCRVHHTMLLPYYLKGRQRIREETVAAYSQLRAQNILPCFDRFAWAVDVVLSRGLLLPTAWPTAGGVFTNSTTDGEHEEEDSDPLPHTSLECGVVPFLDLVNAPDDVGRVVNADIEIATSLETLPKFLTDELAADATARGRGGDDLAEVKRLLETHYYLCLTLRKPLRASEEVILEWQVPVLTTEVLTAAEDAIVSRFLKYMF | not soluble |
| MSLATILIADDDPVTRTTLSIMLEDEDHEVYEAADSAETLDLLETTEPHVVFMDMVLPDCEAGEGITRVRRAAPAVTIIAMTGQPDTARFSAMARDAGCKECLIKPFEKNRVLALTRKVLAARGHKEGHHHHHH | not soluble |
| MGSDKIHHHHHHMINELKKTKSRSEIKREQILHSAIELFCVQGFPNTSMDEVAKLAGVSKQTVYAHFGSKDDLFVAAIESRCIAHQLTGDLLFDPKHPEVSIMRFSQQFGEMIVSHETMAVFKTCVAQAESHPELPRLFFNAGPKHVLGLLSGFLQLVDKQGGYHFPKPHDSAIRLCLMLFGELKLRLELGLEVEELRLSRDAYIEETAQMFLRAHRV | not soluble |
| MAKRGRPCGFDREQALRRALDVFWEAGYEGVTMAALKEAMGGICAPSMYAAYGSKEALFRSAVELYLSQECQLSKGAFALPTARESIAALLESAAVSYTTEGKPRGCLVDLSTTNFSPANKGVEDYLRDHRRRAARLLRERFARGVADGDVPAGADLDALTSFYSSVLQGLSIQARDGASRQQLLAIGRCAMAAWDSLLAVEAA | not soluble |
| MRLEVFCEDRLGLTRELLDLLVLRGIDLRGIEIDPIGRIYLNFAELEFESFSSLMAEIRRIAGVTDVRTVPWMPSEREHLALSALLEALPEPVLSVDMKSKVDMANPASCQLFGQKLDRLRNHTAAQLINGFNFLRWLESEPQDSHNEHVVINGQNFLMEITPVYLQDENDQHVLTGAVVMLRSTIRMGR | soluble |
| MGSDKIHHHHHHMARVAINGFGRIGRLVYRIIYERKNPDIEVVAINDLTDTKTLAHLLKYDSVHKKFPGKVEYTENSLIVDGKEIKVFAEPDPSKLPWKDLGVDFVIESTGVFRNREKAELHLQAGAKKVIITAPAKGEDITVVIGCNEDQLKPEHTIISCASCTTNSIAPIVKVLHEKFGIVSGMLTTVHSYTNDQRVLDLPHKDLRRARAAAVNIIPTTTGAAKAVALVVPEVKGKLDGMAIRVPTPDGSITDLTVLVEKETTVEEVNAVMKEATEGRLKGIIGYNDEPIVSSDIIGTTFSGIFDATITNVIGGKLVKVASWYDNEYGYSNRVVDTLELLLKM | not soluble |
| MSEVYRLTCIVCPLSCSIEVEIEAGKIKDIKGYTCPRGKEWAIEEIRAPKRVVMSVIPVEGGKLPTVSVKTEKPIPKDKIPELMKMLAKLKLKAPVKVGQVVGEFEGVKIIATREALEHHHHHH | not soluble |
| VSQLFEEKAKAVNELPTKPSTDELLELYALYKQATVGDNDKEKPGIFNMKDRYKWEAWENLKGKSQEDAEKEYIALVDQLIAKYSS | soluble |
| MGSDKIHHHHHHMKRENLHQPFEICFSELDESQLKEHDHTFFELVYILSGTGIQWINNNKFPYHDGHLFMITPGDIHSFDIHTTTKFVYIKFNDIYIHSAVFGAENIQRLEFILQHANHRPGCILRNQTDKLLVKPMIEAIIREYVNRNIYSSEIITQLINTIVIVVARNIAMFLPEQIDENSEEKSLNILQYIQSNICYPEKIKAKAISQHFGISPNYLGRYFKKQTNETMQQYILNYKMKMVESRLLHSEMRISEIVEELGFTDESHLNRLFKKYKDCNPTDFRKKHRGQ | not soluble |
| MSFETISVIGLGYIGLPTAAAFASRKKKVIGVDVNAHAVETINRGAIHIVEPDLDKVVKIAVEGGYLQAVTKPQAADAFLIAVPTPFKGDHEPDMIFVESAAKSIAPVLKKGDLVILESTSPVGATEQMAQWLAEARPDLSFPQQAGEAADINIAYCPERVLPGQVMVELIQNDRVIGGMTPKCSARASALYKIFLEGECVVTNSRTAEMCKLTENSFRDVNIAFANELSLICDEQGINVWELIRLANRHPRVNILQPGPGVGGHCIAVDPWFIVSQNPQLARLIHTARLVNDGKPLWVVDRVKAAVADCLAASDKRASEVKIACFGLAFKPDIDDLRESPAVGVARLIAEWHVGETLVVEPNVEQLPKSLMGLVTLKDTATALQQADVLVMLVDHKQFKAIKPEDIKQQWIVDTKGVWR | not soluble |
| VRVLSYDKEKLNWLYKDPQGLVQGPFSLTQLKAWSDAEYFTKQFRVWMTGESMESAVLLTDVLRL | soluble |
| MSATVKPYQEMESGKREQVELMFNNISPKYDLLNRVLSLGIDKIWRKQALNLLKQDKPAHILDVATGTADLAIEAATRLKPTSVVGIDIAEDMLQIGRGKIAKKNLDKIIRLEKGDSEKINFPDNTFDAVIVSFGVRNFEHLEIGLAEIHRVLKPAGSIMVLEFSKPQNAPFKQVYQFYFKNILPTVGKLISKDSAAYTYLPDSVNAFPDGKAFCSILEKTGFTIKHYKPYTFGVCTAYVGKKLEHHHHHH | not soluble |
| MSDPRYQIDVSVVTRYLKEQSDPENSRFAFAYTITVQNNGSLSAKLLSRHWLITNGDGEVEEVRGAGVVGQQPNIDPGQSHTYSSGAVISTRVGTMQGSYQMFAEDGKRFDAEIAPFRLAVPGALHLEHHHHHH | soluble |
| MIPLCREHNKTCRVKVNYHWRVYNEDINKNAVLELSCQCQVLDQLRKTFVELGSSTIHSAADFEFSCITKDGPVVLSSGYEIYNNIRPELSFYHSQLPQLFLHVRILDVSVIAKLDDLGRTVNECKATMKSDKAWRVMKDTEIAEGQLSLQELLDKQQLEIKSLQKDISEMKLENQCRKKEDKNSFKNKEVHEASCDKCQDLIIGHRFKCAICYNYDLCETCEAAGVHAQHALIRLVSENTLFPEHLIVKNPEEVKDQNGQVQAIASSRDRAIQVPLRRLGITPQAIATKNNVSRYLNAQSDRNIIEDPWYAQHMSSRKPQTYERMHPKLKDTTDGKKVQKVSFRDRFYKKAESSLDKHEKQLRFDLSASRQEFIREKEKFRVEKETLMKQKEQIEEMMKQETINFETNRAFFSDRFEPIFNKVKDGKKSEDDTTRKVEFEVETAESNYPGSIFSDEDSLSDLAEILKDIEEYECSSESSDDQEKDDFDVVEEEAKQS | not soluble |
| WFDTLNCHRLSDYQVGRAADIRLPEGCAFSDGIGSAFALEEAPPFSGRPDMPTAADFLALAAKGGYPAVHAAHAGLLYVRNKIALTAKEQAERRARP | not soluble |
| MSPIVSVPDITAPVENVPAILPKVVPGELIVNKPTGGDSDELFQYLVDILASPVYDVAIESPLELAEKLSDRLGVNFYIKREDKQRVFSFKLRGAYNMMSNLSREELDKGVITASAGNHAQGVALAGQRLNCVAKIVMPTTTPQIKIDAVRALGGDVVLYGKTFDEAQTHALELSEKDGLKYIPPFDDPGVIKGQGTIGTEINRQLKDIHAVFIPVGGGGLIAGVATFFKQIAPNTKIIGVEPYGAASMTLSLHEGHRVKLSNVDTFADGVAVALVGEYTFAKCQELIDGMVLVANDGISAAIKDVYDEGRNILETSGAVAIAGAAAYCEFYKIKNENIVAIASGANMDFSKLHKVTELAGLGSGK | soluble |
